Non-standard residues stand in square brackets, D forms with d. *: point of attachment. X4 = ((1S)-1-Carboxy-3-methylbutyl)carbamoyl, CC(C)C[C@H](NC(=O)*)C(=O)O; X10 = Tetrahydro‑2H‑pyran‑4‑yl‑carbamoyl, O=C(NC1CCOCC1)*; 4‑guanidinomethylbenzoyl = N=C(N)NCc1ccc(C(=O)*)cc1; Arg(Me) = CNC(=N)NCCC[C@H](N)C(=O)O; hArg = N=C(N)NCCCC[C@H](N)C(=O)O; tBuAla = CC(C)(C)C[C@H](N)C(=O)O; 4Pal = N[C@@H](Cc1ccncc1)C(=O)O; Cha = N[C@@H](CC1CCCCC1)C(=O)O; Iva = CC[C@](C)(N)C(=O)O; Aib = CC(C)(N)C(=O)O
B1: Ac-[D-Pro24, Pya(4)26, Cha27,36, Aib28,31, Lys30]-PYY(24-36) (peptide)
peptide: Ac-[dP]R[4Pal][Cha][Aib]NK[Aib]TRQR[Cha]-NH2
SMILES: CC(=O)N1CCC[C@@H]1C(=O)N[C@@H](CCCNC(=N)N)C(=O)N[C@@H](Cc1ccncc1)C(=O)N[C@@H](CC1CCCCC1)C(=O)NC(C)(C)C(=O)N[C@@H](CC(N)=O)C(=O)N[C@@H](CCCCN)C(=O)NC(C)(C)C(=O)N[C@H](C(=O)N[C@@H](CCCNC(=N)N)C(=O)N[C@@H](CCC(N)=O)C(=O)N[C@@H](CCCNC(=N)N)C(=O)N[C@@H](CC1CCCCC1)C(N)=O)[C@@H](C)O
B2: 4-Guanidinomethylbenzoyl-[Iva25, Cha27,36, Aib28,31, Lys30]-PYY(25-36) (peptide)
peptide: {4‑guanidinomethylbenzoyl}-[Iva]H[Cha][Aib]NK[Aib]TRQR[Cha]-NH2
SMILES: CC[C@](C)(NC(=O)c1ccc(CNC(=N)N)cc1)C(=O)N[C@@H](Cc1c[nH]cn1)C(=O)N[C@@H](CC1CCCCC1)C(=O)NC(C)(C)C(=O)N[C@@H](CC(N)=O)C(=O)N[C@@H](CCCCN)C(=O)NC(C)(C)C(=O)N[C@H](C(=O)N[C@@H](CCCNC(=N)N)C(=O)N[C@@H](CCC(N)=O)C(=O)N[C@@H](CCCNC(=N)N)C(=O)N[C@@H](CC1CCCCC1)C(N)=O)[C@@H](C)O
B3: Ac-[D-Pro24, Pya(4)26, Cha27,36, Aib28,31, Arg30]-PYY(23-36) (peptide)
peptide: Ac-S[dP]R[4Pal][Cha][Aib]NR[Aib]TRQR[Cha]-NH2
SMILES: CC(=O)N[C@@H](CO)C(=O)N1CCC[C@@H]1C(=O)N[C@@H](CCCNC(=N)N)C(=O)N[C@@H](Cc1ccncc1)C(=O)N[C@@H](CC1CCCCC1)C(=O)NC(C)(C)C(=O)N[C@@H](CC(N)=O)C(=O)N[C@@H](CCCNC(=N)N)C(=O)NC(C)(C)C(=O)N[C@H](C(=O)N[C@@H](CCCNC(=N)N)C(=O)N[C@@H](CCC(N)=O)C(=O)N[C@@H](CCCNC(=N)N)C(=O)N[C@@H](CC1CCCCC1)C(N)=O)[C@@H](C)O
B4: Ac-[Lys22,30, D-Pro24, Pya(4)26, Cha27,36, Aib28,31]-PYY(22-36) (peptide)
peptide: Ac-KS[dP]R[4Pal][Cha][Aib]NK[Aib]TRQR[Cha]-NH2
SMILES: CC(=O)N[C@@H](CCCCN)C(=O)N[C@@H](CO)C(=O)N1CCC[C@@H]1C(=O)N[C@@H](CCCNC(=N)N)C(=O)N[C@@H](Cc1ccncc1)C(=O)N[C@@H](CC1CCCCC1)C(=O)NC(C)(C)C(=O)N[C@@H](CC(N)=O)C(=O)N[C@@H](CCCCN)C(=O)NC(C)(C)C(=O)N[C@H](C(=O)N[C@@H](CCCNC(=N)N)C(=O)N[C@@H](CCC(N)=O)C(=O)N[C@@H](CCCNC(=N)N)C(=O)N[C@@H](CC1CCCCC1)C(N)=O)[C@@H](C)O
B5: Ac-[Leu22, D-Pro24, Pya(4)26, Cha27,36, Aib28,31, Lys30]-PYY(22-36) (peptide)
peptide: Ac-LS[dP]R[4Pal][Cha][Aib]NK[Aib]TRQR[Cha]-NH2
SMILES: CC(=O)N[C@@H](CC(C)C)C(=O)N[C@@H](CO)C(=O)N1CCC[C@@H]1C(=O)N[C@@H](CCCNC(=N)N)C(=O)N[C@@H](Cc1ccncc1)C(=O)N[C@@H](CC1CCCCC1)C(=O)NC(C)(C)C(=O)N[C@@H](CC(N)=O)C(=O)N[C@@H](CCCCN)C(=O)NC(C)(C)C(=O)N[C@H](C(=O)N[C@@H](CCCNC(=N)N)C(=O)N[C@@H](CCC(N)=O)C(=O)N[C@@H](CCCNC(=N)N)C(=O)N[C@@H](CC1CCCCC1)C(N)=O)[C@@H](C)O
B6: Ac-[Phe22, D-Pro24, Pya(4)26, Cha27,36, Aib28,31, Lys30]-PYY(22-36) (peptide)
peptide: Ac-FS[dP]R[4Pal][Cha][Aib]NK[Aib]TRQR[Cha]-NH2
SMILES: CC(=O)N[C@@H](Cc1ccccc1)C(=O)N[C@@H](CO)C(=O)N1CCC[C@@H]1C(=O)N[C@@H](CCCNC(=N)N)C(=O)N[C@@H](Cc1ccncc1)C(=O)N[C@@H](CC1CCCCC1)C(=O)NC(C)(C)C(=O)N[C@@H](CC(N)=O)C(=O)N[C@@H](CCCCN)C(=O)NC(C)(C)C(=O)N[C@H](C(=O)N[C@@H](CCCNC(=N)N)C(=O)N[C@@H](CCC(N)=O)C(=O)N[C@@H](CCCNC(=N)N)C(=O)N[C@@H](CC1CCCCC1)C(N)=O)[C@@H](C)O
B7: Ac-[D-Pro24, Lys(Ac)25, Pya(4)26, Cha27,36, Aib28,31, Lys30]-PYY(23-36) (peptide)
peptide: Ac-S[dP]K(Ac)[4Pal][Cha][Aib]NK[Aib]TRQR[Cha]-NH2
SMILES: CC(=O)NCCCC[C@H](NC(=O)[C@H]1CCCN1C(=O)[C@H](CO)NC(C)=O)C(=O)N[C@@H](Cc1ccncc1)C(=O)N[C@@H](CC1CCCCC1)C(=O)NC(C)(C)C(=O)N[C@@H](CC(N)=O)C(=O)N[C@@H](CCCCN)C(=O)NC(C)(C)C(=O)N[C@H](C(=O)N[C@@H](CCCNC(=N)N)C(=O)N[C@@H](CCC(N)=O)C(=O)N[C@@H](CCCNC(=N)N)C(=O)N[C@@H](CC1CCCCC1)C(N)=O)[C@@H](C)O
B8: Ac-[D-Pro24, Arg(Me)25, Cha27,36, Aib28,31, Lys30]-PYY(23-36) (peptide)
peptide: Ac-S[dP][Arg(Me)]H[Cha][Aib]NK[Aib]TRQR[Cha]-NH2
SMILES: CNC(=N)NCCC[C@H](NC(=O)[C@H]1CCCN1C(=O)[C@H](CO)NC(C)=O)C(=O)N[C@@H](Cc1c[nH]cn1)C(=O)N[C@@H](CC1CCCCC1)C(=O)NC(C)(C)C(=O)N[C@@H](CC(N)=O)C(=O)N[C@@H](CCCCN)C(=O)NC(C)(C)C(=O)N[C@H](C(=O)N[C@@H](CCCNC(=N)N)C(=O)N[C@@H](CCC(N)=O)C(=O)N[C@@H](CCCNC(=N)N)C(=O)N[C@@H](CC1CCCCC1)C(N)=O)[C@@H](C)O
B9: Tetrahydro-2H-pyran-4-yl-carbamoyl-[Glu23, D-Pro24, Pya(4)26, Cha27,36, Aib28,31, Lys30]-PYY(23-36) (peptide)
peptide: X10-E[dP]R[4Pal][Cha][Aib]NK[Aib]TRQR[Cha]-NH2
SMILES: C[C@@H](O)[C@H](NC(=O)C(C)(C)NC(=O)[C@H](CCCCN)NC(=O)[C@H](CC(N)=O)NC(=O)C(C)(C)NC(=O)[C@H](CC1CCCCC1)NC(=O)[C@H](Cc1ccncc1)NC(=O)[C@H](CCCNC(=N)N)NC(=O)[C@H]1CCCN1C(=O)[C@H](CCC(=O)O)NC(=O)NC1CCOCC1)C(=O)N[C@@H](CCCNC(=N)N)C(=O)N[C@@H](CCC(N)=O)C(=O)N[C@@H](CCCNC(=N)N)C(=O)N[C@@H](CC1CCCCC1)C(N)=O
B10: [(1S)-1-Carboxy-3-methylbutyl]carbamoyl-[Glu23, D-Pro24, Pya(4)26, Cha27,36, Aib28,31, Lys30]-PYY(23-36) (peptide)
peptide: X4-E[dP]R[4Pal][Cha][Aib]NK[Aib]TRQR[Cha]-NH2
SMILES: CC(C)C[C@H](NC(=O)N[C@@H](CCC(=O)O)C(=O)N1CCC[C@@H]1C(=O)N[C@@H](CCCNC(=N)N)C(=O)N[C@@H](Cc1ccncc1)C(=O)N[C@@H](CC1CCCCC1)C(=O)NC(C)(C)C(=O)N[C@@H](CC(N)=O)C(=O)N[C@@H](CCCCN)C(=O)NC(C)(C)C(=O)N[C@H](C(=O)N[C@@H](CCCNC(=N)N)C(=O)N[C@@H](CCC(N)=O)C(=O)N[C@@H](CCCNC(=N)N)C(=O)N[C@@H](CC1CCCCC1)C(N)=O)[C@@H](C)O)C(=O)O
B11: [(1S)-1-Carboxy-3-methylbutyl]carbamoyl-[Gln23, D-Pro24, Pya(4)26, Cha27,36, Aib28,31, Lys30]-PYY(23-36) (peptide)
peptide: X4-Q[dP]R[4Pal][Cha][Aib]NK[Aib]TRQR[Cha]-NH2
modifications: not fully specified; printed as [(1S)-1-Carboxy-3-methylbutyl]carbamoyl-[Gln23, D-Pro24, Pya(4)26, Cha27,36, Aib28,31, Lys30]-PYY(23-36)
B12: Ac-[D-Pro24, Har25, Cha27,36, Aib28,31, Lys30]-PYY(23-36) (peptide)
peptide: Ac-S[dP][hArg]H[Cha][Aib]NK[Aib]TRQR[Cha]-NH2
SMILES: CC(=O)N[C@@H](CO)C(=O)N1CCC[C@@H]1C(=O)N[C@@H](CCCCNC(=N)N)C(=O)N[C@@H](Cc1c[nH]cn1)C(=O)N[C@@H](CC1CCCCC1)C(=O)NC(C)(C)C(=O)N[C@@H](CC(N)=O)C(=O)N[C@@H](CCCCN)C(=O)NC(C)(C)C(=O)N[C@H](C(=O)N[C@@H](CCCNC(=N)N)C(=O)N[C@@H](CCC(N)=O)C(=O)N[C@@H](CCCNC(=N)N)C(=O)N[C@@H](CC1CCCCC1)C(N)=O)[C@@H](C)O
B13: Ac-[D-Pro24, Iva25, Pya(4)26, Cha27,36, Leu(Me)28, Lys30, Aib31]-PYY(23-36) (peptide)
peptide: Ac-S[dP][Iva][4Pal][Cha][tBuAla]NK[Aib]TRQR[Cha]-NH2
SMILES: CC[C@](C)(NC(=O)[C@H]1CCCN1C(=O)[C@H](CO)NC(C)=O)C(=O)N[C@@H](Cc1ccncc1)C(=O)N[C@@H](CC1CCCCC1)C(=O)N[C@@H](CC(C)(C)C)C(=O)N[C@@H](CC(N)=O)C(=O)N[C@@H](CCCCN)C(=O)NC(C)(C)C(=O)N[C@H](C(=O)N[C@@H](CCCNC(=N)N)C(=O)N[C@@H](CCC(N)=O)C(=O)N[C@@H](CCCNC(=N)N)C(=O)N[C@@H](CC1CCCCC1)C(N)=O)[C@@H](C)O
B14: Ac-[D-Pro24, Iva25,28, Pya(4)26, Cha27,36, Lys30, Aib31]-PYY(23-36) (peptide)
peptide: Ac-S[dP][Iva][4Pal][Cha][Iva]NK[Aib]TRQR[Cha]-NH2
SMILES: CC[C@](C)(NC(=O)[C@H](CC1CCCCC1)NC(=O)[C@H](Cc1ccncc1)NC(=O)[C@](C)(CC)NC(=O)[C@H]1CCCN1C(=O)[C@H](CO)NC(C)=O)C(=O)N[C@@H](CC(N)=O)C(=O)N[C@@H](CCCCN)C(=O)NC(C)(C)C(=O)N[C@H](C(=O)N[C@@H](CCCNC(=N)N)C(=O)N[C@@H](CCC(N)=O)C(=O)N[C@@H](CCCNC(=N)N)C(=O)N[C@@H](CC1CCCCC1)C(N)=O)[C@@H](C)O

Columns and labels:
[1] = target: human Y2 receptor (human) (UniProt P49146); assay: cell-based or functional assay
[2] = target: human Y2 receptor (human) (UniProt P49146); assay: RBA: displacement of [125I]-PYY from hY2R/CHO membranes

Sequence of human Y2 receptor (human) (P49146 whole entry): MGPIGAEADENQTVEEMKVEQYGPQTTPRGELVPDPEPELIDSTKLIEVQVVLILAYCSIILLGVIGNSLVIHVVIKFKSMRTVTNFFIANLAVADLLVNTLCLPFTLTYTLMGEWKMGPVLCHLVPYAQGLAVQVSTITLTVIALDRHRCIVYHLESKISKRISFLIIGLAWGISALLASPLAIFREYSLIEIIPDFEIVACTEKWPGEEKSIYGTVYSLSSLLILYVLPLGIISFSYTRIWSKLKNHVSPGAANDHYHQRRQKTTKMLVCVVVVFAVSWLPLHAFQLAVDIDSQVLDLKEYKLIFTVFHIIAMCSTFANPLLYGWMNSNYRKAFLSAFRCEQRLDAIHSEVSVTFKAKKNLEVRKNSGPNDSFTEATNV

| GBA EC50 Ratio ([35S]GTPγS binding) (EC50 compound/EC50 PYY(3-36)) [1] | IC50 Ratio (IC50 compound/IC50 PYY(3-36)) [2] | Binder |
| --- | --- | --- |
| 0.56 | 0.68 | B1 |
| 2.8 | 6.3 | B2 |
| 1.8 | 1.1 | B3 |
| 1 | 1.1 | B4 |
| 1 | 1.2 | B5 |
| 0.89 | 1.2 | B6 |
| 4.2 | 6.6 | B7 |
| 1.8 | 1.8 | B8 |
| 1.6 | 1.1 | B9 |
| 2.5 | 2.2 | B10 |
| 1.3 | 0.93 | B11 |
| 2.7 | 1.2 | B12 |
| 1.2 | 0.76 | B13 |
| 1 | 1.1 | B14 |

Source: US20120172293A1 (Takeda / Millennium, published 2012)
